Among the data in the supplement of paper PMC12042874 are amyloid nucleation score values, retold here.

The data set in a line: amyloid nucleation score (Sup35N fusion, yeast selection) (log enrichment); library NNK3; higher = more nucleation; inactive = no reads after selection. The method, boiled down:
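Psi-negative yeast expressed Sup35N fused to peptides of 20 random codons. They were induced 24 hours with 100 μM copper sulfate, grown 7 days at 30°C without adenine and uracil, and their plasmid inserts from input and output were Illumina-sequenced. The nucleation score is the DiMSum log enrichment of output over input reads, centred on the mode score of non-aggregating sequences. Sequences with under 100 input reads were excluded.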

± gives the uncertainty stated by the source.

As for CDVVSSDMVFDLS, the amyloid nucleation score result is “inactive”.

Regarding VSSEGYIADTA, the amyloid nucleation score was 0.292 ± 0.57.

Regarding LCCSCWLLIDCQWKDGYLEG, the amyloid nucleation score was determined as 1.91 ± 0.079.

On to LFYDCELGLTSVRWLGWGRN, for which the amyloid nucleation score result was “inactive”.

Turning to LSGLFARRNQWWKYGLRRN, the amyloid nucleation score result was “inactive”.

Regarding FIRIHRNAI, the amyloid nucleation score result was “inactive”.

For SCMCYGTLLVLLYISYVMVE, the amyloid nucleation score result is “inactive”.

As to VMYSGFRVILF, the amyloid nucleation score was 0.751 ± 0.15.

In turn, YGLSFHDLYGCCLRLGIGMD returned an amyloid nucleation score of 1.63 ± 0.081.

On to YKDRR, for which the amyloid nucleation score result is “inactive”.

For the substance VFPGTAVNHMESVHGWLVNY, the amyloid nucleation score entry is “inactive”.

Take TFLYTFWVLMACSELV: the amyloid nucleation score result is “inactive”.

Consider LRNLNK, for which the amyloid nucleation score result is “inactive”.

Take SWYGQLLCVTVVRYHCAPCG: the amyloid nucleation score result is “inactive”.

Consider SKESISLECIHRVWFCGTGL, for which the amyloid nucleation score came out at 0.185 ± 0.38.

As to SVESQGLWGCCILSKR, the amyloid nucleation score was 2.7 ± 0.06.

On to TCSSINTLLKYMFLSISLFR, for which the amyloid nucleation score entry was “inactive”.

With TCCYRYYLLILAVSGVFIDT, the amyloid nucleation score result is “inactive”.

As to SITQSRLTP, the amyloid nucleation score was -0.196 ± 0.36.

For NLSSCIFVVS, the amyloid nucleation score entry was “inactive”.

With SIMLFWVTGRLLRLSLLMLL, the amyloid nucleation score is 0.45 ± 0.21.

Regarding LYFILLAHLFSCNNPVSKDP, the amyloid nucleation score is 1.4 ± 0.13.

The substance RLFKNGSMGRSYGSVYRPV registered an amyloid nucleation score of -0.111 ± 0.81.

Take TCVMPGVSQLRFGYWVWICR: the amyloid nucleation score result is “inactive”.

Take PEMFGRSWARDTRKVTVLAS: the amyloid nucleation score result was “inactive”.

Take IIIVKCT: the amyloid nucleation score entry was “inactive”.

Consider DHVGADMGLCDNVG, for which the amyloid nucleation score result was “inactive”.

Regarding DDVTHISLKKNSDNLGYNSR, the amyloid nucleation score result is “inactive”.

Consider VFDDY, for which the amyloid nucleation score result was “inactive”.

NFLWYCV yielded an amyloid nucleation score of 1.75 ± 0.089.

In the case of RFKVT, the amyloid nucleation score result is “inactive”.

LWYTSSSRGWPISLSSMW: the amyloid nucleation score entry is “inactive”.

As to YNVTFQSPVTSWDNHLIMA, the amyloid nucleation score result is “inactive”.

FLCTLSMWYCIDRTFMYMCS came in with an amyloid nucleation score of -0.053 ± 0.32.

As to RKSHD, the amyloid nucleation score entry was “inactive”.

With FRRFSGTGFIMSEIAYFFSI, the amyloid nucleation score entry was “inactive”.

For QMDRRTPLM, the amyloid nucleation score result is “inactive”.

As to YLIDVGL, the amyloid nucleation score result was “inactive”.

As to DRIVACKLKTGYTQGMVPLL, the amyloid nucleation score entry is “inactive”.

As for IFHLKIAYFPNYGRITLYYL, the amyloid nucleation score came out at 1.65 ± 0.091.

On to VAFYMMYSSGPQRTRRWVTV, for which the amyloid nucleation score entry is “inactive”.

For SQLRMFRVARVLIAEVNAP, the amyloid nucleation score entry is “inactive”.

For the substance KSYLAVVSYFGFTKKADPTG, the amyloid nucleation score result is “inactive”.

Consider GNQAYTVTGGSETVCSDNGC, for which the amyloid nucleation score entry is “inactive”.

Regarding YNRLNRL, the amyloid nucleation score entry was “inactive”.

On to CFFSRFILYPSLTLYMTMLR, for which the amyloid nucleation score result is “inactive”.

In the case of LIHFV, the amyloid nucleation score result was “inactive”.

Substance FLHDFSILIGMICNQIGITL registered an amyloid nucleation score of 1.24 ± 0.17.

Turning to CFRCFGKGCHILAYGVYC, the amyloid nucleation score result was “inactive”.

For the substance LSGRVERVW, the amyloid nucleation score entry was “inactive”.

For the substance IHSPKLLAGAM, the amyloid nucleation score entry is “inactive”.

In the case of IVPSNSARLLSVKALDLPIS, the amyloid nucleation score entry is “inactive”.

Consider WSPWHENWGLGMLQLKTSLW, for which the amyloid nucleation score entry was “inactive”.

Consider VLADYGTM, for which the amyloid nucleation score entry was “inactive”.

For the substance YLTVCRGRNTEGYGWEVNS, the amyloid nucleation score result was “inactive”.

In turn, FWIVSVTYFNCLVDWGEGCM yielded an amyloid nucleation score of 2.05 ± 0.091.

Turning to FRHCGCHTFLCIIVTDRHHY, the amyloid nucleation score was 1.85 ± 0.061.

On to VGQLFTSSSSVVSSGCMIVD, for which the amyloid nucleation score result is “inactive”.

For the substance PYKEFPNNVRPTWNQRYNVK, the amyloid nucleation score result was “inactive”.

As to AIIDYFMM, the amyloid nucleation score entry was “inactive”.

As for FRVYQNIDTERDSRTSPKES, the amyloid nucleation score entry was “inactive”.

Take FSDVGLWFGAYRKVVVVKLF: the amyloid nucleation score entry is “inactive”.

In the case of VAVVIEYMKLVVLG, the amyloid nucleation score entry was “inactive”.

Turning to RFLFNKRL, the amyloid nucleation score is -0.029 ± 0.81.

Turning to IMSFVS, the amyloid nucleation score was determined as 0.031 ± 0.43.

The substance LVIWHIVKTAVMWTARTERL registered an amyloid nucleation score of -0.409 ± 1.5.

As for RRSRCVRSVYRFRMSRARPP, the amyloid nucleation score entry was “inactive”.

For the substance LGRCRWMDPHILLVLHVPCE, the amyloid nucleation score entry is “inactive”.

Regarding MVVIIFDWIPHLFNLYMYVI, the amyloid nucleation score result was “inactive”.

As for LGVRCYNFIRFKYLSCLRLP, the amyloid nucleation score result was “inactive”.

As to RFSYWGKDRSRVSNL, the amyloid nucleation score result is “inactive”.

Take LEGLMANVMRGFRSVVPATW: the amyloid nucleation score entry is “inactive”.

With SLVLNSMMRTTNKNGNEGYV, the amyloid nucleation score entry is “inactive”.

Regarding NVDHRTKSWLINWFTSLELL, the amyloid nucleation score result was “inactive”.

With YFFSVLG, the amyloid nucleation score result was “inactive”.

In the case of FSNQSNFNMELLLKDRDSTP, the amyloid nucleation score result is “inactive”.

Turning to LEFSYPCRWA, the amyloid nucleation score result was “inactive”.

For the substance HIINCFIFLNVTDYTIVFLL, the amyloid nucleation score came out at 2.21 ± 0.074.

Regarding RFIGFYPLLQGKNAASGRVL, the amyloid nucleation score entry was “inactive”.

Substance FRCPMFFNCSSVLTSHVSLA registered an amyloid nucleation score of 1.34 ± 0.16.

With YYFCMLS, the amyloid nucleation score is 2.55 ± 0.072.

In the case of DVANKIVSKGRS, the amyloid nucleation score result is “inactive”.

Consider TTEPDRATLSYR, for which the amyloid nucleation score entry is “inactive”.

Turning to WVHFYDTMGDM, the amyloid nucleation score result was “inactive”.

Take IFNKVSLYNEMLVWVLTWSW: the amyloid nucleation score entry is “inactive”.

For ISDPRLGKVPLWDMSSIVYV, the amyloid nucleation score result was “inactive”.

HRMRLSCCTAFDTLVMIPIS came in with an amyloid nucleation score of 0.482 ± 0.17.

For WCGVSLVL, the amyloid nucleation score result was “inactive”.

For SGAQARDV, the amyloid nucleation score result is “inactive”.

RVRYGGNKMHNSRKLACGQG came in with an amyloid nucleation score of 0.743 ± 0.18.

Consider LYHPGALVHQQIDS, for which the amyloid nucleation score entry is “inactive”.

For the substance RPRFWICMSYMEQSSDNRRT, the amyloid nucleation score was 1.37 ± 0.084.

Consider LCKSMRNDSLDYFLHCPGML, for which the amyloid nucleation score entry is “inactive”.

With YYCMFVGD, the amyloid nucleation score came out at 1.24 ± 0.15.

Regarding PREWLGVLLMTVLNFWMTVV, the amyloid nucleation score result was “inactive”.

On to NMMAYFVFLGMKANFYMWVW, for which the amyloid nucleation score result is “inactive”.

Consider HKLLGVTYYAV, for which the amyloid nucleation score result was “inactive”.

Consider SWVHGERLMHDCQTLLLYSW, for which the amyloid nucleation score entry is “inactive”.

YCCAKL: the amyloid nucleation score entry is “inactive”.

Take FIYSGYTSVNKILGFYNHDS: the amyloid nucleation score is 0.95 ± 0.16.

For TPGSYLGYCIPRFIGLQYDP, the amyloid nucleation score entry was “inactive”.

With MNVFVAQSLRRVHCAHELN, the amyloid nucleation score amounted to 0.233 ± 0.81.

On to WTLARFTSD, for which the amyloid nucleation score entry was “inactive”.

In the case of CDWRESVFRRAVTLPVALWM, the amyloid nucleation score entry was “inactive”.

Consider CIIFYCIYGFN, for which the amyloid nucleation score was found to be 3.04 ± 0.073.

As for DLMTMSYRLMIIFLVDTWPR, the amyloid nucleation score result is “inactive”.

SLPRV: the amyloid nucleation score result was “inactive”.

For GGFCKWRKCGVYKMTGHCPE, the amyloid nucleation score result was “inactive”.

LQVARIMVSWIDQCGENRTD: the amyloid nucleation score result was “inactive”.

KSTICACTLIMVNTPFMLSM: the amyloid nucleation score turned out to be 1.36 ± 0.11.

PFIGVSMLSMG returned an amyloid nucleation score of -0.47 ± 0.87.

Take CSIGVRSVVCS: the amyloid nucleation score result is “inactive”.

Substance GRLLMFASDLLNSPRMCWTE yielded an amyloid nucleation score of -0.687 ± 1.8.

FNLLHTRMTLLYSNIRNRYN came in with an amyloid nucleation score of 0.358 ± 0.62.

As for RVFEVEKLVEIGGTMLHESN, the amyloid nucleation score entry is “inactive”.

For EDIEMEMLLLGCNLEVLNAK, the amyloid nucleation score result was “inactive”.

In turn, IVKRFWLNGSFTFSFCNGNG yielded an amyloid nucleation score of 2.09 ± 0.09.

For the substance PQCESLMYCGD, the amyloid nucleation score result was “inactive”.

YRESDKVTFWLYLSRVDDLD registered an amyloid nucleation score of 2.06 ± 0.083.

For the substance CSYRRLIFILCD, the amyloid nucleation score entry is “inactive”.

INYLFASRSKQEQLLDWRFS: the amyloid nucleation score result is “inactive”.

With NRRFITYFSFRSPEVYKMQY, the amyloid nucleation score result was “inactive”.

For LKRYDVQSSTGVNLTYGTYT, the amyloid nucleation score result was “inactive”.

Turning to QARVRYDASTLLFGCTFC, the amyloid nucleation score came out at 2.65 ± 0.079.

As for RLDGCM, the amyloid nucleation score result is “inactive”.

As to MYFMGLFFMTGVGFSMKEVE, the amyloid nucleation score entry is “inactive”.

The substance RPVKCSLYMTGQLQRLDGVN showed an amyloid nucleation score of 0.915 ± 0.14.

Regarding RRAAEKFFNEPTWERHLVSG, the amyloid nucleation score entry was “inactive”.

In turn, GMVNDYVVTVNFPCFWLG gave an amyloid nucleation score of 2.19 ± 0.079.

As for INIWSMYYMILLLFFIIYRL, the amyloid nucleation score turned out to be 0.55 ± 0.24.

In the case of LFSSVC, the amyloid nucleation score entry was “inactive”.

Take LFLSMGYLDGFYPIRSISYL: the amyloid nucleation score entry is “inactive”.

Consider ECELPNAPTCEICKIDSRLG, for which the amyloid nucleation score result was “inactive”.

With FLTSVGIAYAKFRLGYSCLL, the amyloid nucleation score result was “inactive”.
